The values that follow come from article PMC5490192, “An L-threonine transaldolase is required for L-threo-β-hydroxy-α-amino acid assembly during obafluorin biosynthesis” (Nature Communications, 2017).

As usually defined, the Km is the concentration of substrate that gives half-maximal velocity. A word on the kcat: it is the maximal rate divided by the concentration of active sites.

For one series, the target named is T1, His6-ObaG (Pseudomonas fluorescens, UniProt A0A1X9LWZ7).
T1 construct: gene obiH
T1 sequence (A0A1X9LWZ7 1-440): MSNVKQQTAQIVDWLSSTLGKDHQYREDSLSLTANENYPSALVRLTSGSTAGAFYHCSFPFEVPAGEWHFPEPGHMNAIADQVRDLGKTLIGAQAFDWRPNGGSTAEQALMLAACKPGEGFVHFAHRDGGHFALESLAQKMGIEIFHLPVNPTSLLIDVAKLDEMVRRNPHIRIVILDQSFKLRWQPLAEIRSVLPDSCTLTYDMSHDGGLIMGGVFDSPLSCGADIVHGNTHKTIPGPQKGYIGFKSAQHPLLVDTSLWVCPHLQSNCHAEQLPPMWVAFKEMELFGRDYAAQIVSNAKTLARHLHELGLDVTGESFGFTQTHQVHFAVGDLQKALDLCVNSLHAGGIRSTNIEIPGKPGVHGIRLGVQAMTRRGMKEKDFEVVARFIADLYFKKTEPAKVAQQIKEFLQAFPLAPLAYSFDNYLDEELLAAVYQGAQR
The series can be described thus: UV/Vis absorption spectra; NaBH4 reduction of internal aldimine. In kind it is binding. The settings on record: covalent (internal aldimine); pH 7.8; excess PLP removed.

Substrate in series [1]: C[C@@H](O)[C@H](N)C(=O)O
The series can be described thus: discontinuous HPLC L-TTA assay, Michaelis-Menten fit. It is filed as biochemical, Pseudomonas fluorescens. The settings on record: co-substrate 4-nitrophenylacetaldehyde (10 mM in standard assay), L-threonine 1–200 mM, 25 μM enzyme, pH 7.8, 27 °C, PLP 0.4 mM, MgCl2 15 mM, NaCl 300 mM.

For `Cc1ncc(COP(=O)(O)O)c(C=O)c1O` [pyridoxal-5′-phosphate], the “UV/Vis absorption spectra; NaBH4 reduction of internal aldimine” value at His6-ObaG is listed as “these results strongly support ObaG being a PLP-dependent enzyme”.

B1: His6-ObaG (Pseudomonas fluorescens) (protein)
chain: MSNVKQQTAQIVDWLSSTLGKDHQYREDSLSLTANENYPSALVRLTSGSTAGAFYHCSFPFEVPAGEWHFPEPGHMNAIADQVRDLGKTLIGAQAFDWRPNGGSTAEQALMLAACKPGEGFVHFAHRDGGHFALESLAQKMGIEIFHLPVNPTSLLIDVAKLDEMVRRNPHIRIVILDQSFKLRWQPLAEIRSVLPDSCTLTYDMSHDGGLIMGGVFDSPLSCGADIVHGNTHKTIPGPQKGYIGFKSAQHPLLVDTSLWVCPHLQSNCHAEQLPPMWVAFKEMELFGRDYAAQIVSNAKTLARHLHELGLDVTGESFGFTQTHQVHFAVGDLQKALDLCVNSLHAGGIRSTNIEIPGKPGVHGIRLGVQAMTRRGMKEKDFEVVARFIADLYFKKTEPAKVAQQIKEFLQAFPLAPLAYSFDNYLDEELLAAVYQGAQR
In the case of B1, in series [1], the Km amounted to 40.2 ± 3.8 mM and the kcat was found to be 1.05 ± 0.0317 s⁻¹.
